In publication PMC7301157:

Biological target: Clb3-Cdk1 (S. cerevisiae) (UniProt P24870)
Sequence of UniProt P24870 (P24870 whole entry, chain 1 of 2): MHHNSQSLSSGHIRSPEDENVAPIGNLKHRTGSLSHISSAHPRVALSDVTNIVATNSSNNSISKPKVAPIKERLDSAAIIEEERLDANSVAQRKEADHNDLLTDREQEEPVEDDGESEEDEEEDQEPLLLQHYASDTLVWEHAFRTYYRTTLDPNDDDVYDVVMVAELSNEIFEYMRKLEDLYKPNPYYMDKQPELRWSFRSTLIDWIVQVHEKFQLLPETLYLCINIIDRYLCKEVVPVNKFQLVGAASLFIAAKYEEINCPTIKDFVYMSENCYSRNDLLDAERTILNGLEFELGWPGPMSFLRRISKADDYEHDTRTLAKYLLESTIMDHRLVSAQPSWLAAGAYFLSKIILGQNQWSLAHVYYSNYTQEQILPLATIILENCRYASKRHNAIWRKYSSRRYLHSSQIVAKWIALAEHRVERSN
Sequence of UniProt P24870 (P00546 whole entry, chain 2 of 2, further chain): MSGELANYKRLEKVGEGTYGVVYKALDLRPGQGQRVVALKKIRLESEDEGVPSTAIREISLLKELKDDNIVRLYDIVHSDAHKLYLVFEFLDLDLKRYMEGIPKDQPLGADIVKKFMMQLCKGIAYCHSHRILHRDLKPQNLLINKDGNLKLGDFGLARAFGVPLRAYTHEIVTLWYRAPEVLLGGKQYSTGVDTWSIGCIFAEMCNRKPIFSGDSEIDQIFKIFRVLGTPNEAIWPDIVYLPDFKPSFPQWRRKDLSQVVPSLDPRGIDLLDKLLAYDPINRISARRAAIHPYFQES

- increase of the phosphorylation rate of the model substrate by Clb3-Cdk1: 65 fold
Substance: Sic1(1–33 SPxA) model substrate with PPKGPNF (from UniProt P38634 1-33)
